{"source": "patent US6403637B1", "about": "“Methods of modulating matrix metalloproteinase activity and uses thereof” (priority 1999, dated 2002)", "molecules": {"B1": {"name": "Human MMP-2: human 72 kDa gelatinase (MMP-2) (protein, UniProt P08253 110-660, looked up)", "72 kDa type IV collagenase": "YNFFPRKPKWDKNQITYRIIGYTPDLDPETVDDAFARAFQVWSDVTPLRFSRIHDGEADIMINFGRWEHGDGYPFDGKDGLLAHAFAPGTGVGGDSHFDDDELWTLGEGQVVRVKYGNADGEYCKFPFLFNGKEYNSCTDTGRSDGFLWCSTTYNFEKDGKYGFCPHEALFTMGGNAEGQPCKFPFRFQGTSYDSCTTEGRTDGYRWCGTTEDYDRDKKYGFCPETAMSTVGGNSEGAPCVFPFTFLGNKYESCTSAGRSDGKMWCATTANYDDDRKWGFCPDQGYSLFLVAAHEFGHAMGLEHSQDPGALMAPIYTYTKNFRLSQDDIKGIQELYGASPDIDLGTGPTPTLGPVTPEICKQDIVFDGIAQIRGEIFFFKDRFIWRTVTPRDKPMGPLLVATFWPELPEKIDAVYEAPQEEKAVFFAGNEYWIYSASTLERGYPKPLTSLGLPPDVQRVDAAFNWSKNKKTYIFAGDKFWRYNEVKKKMDPGFPKLIADAWNAIPDNLDAVVDLQGGGHSYFFKGAYYLKLENQSLKSVKFGSIKSDWLGC"}}, "test_system": "UMR 106-01 rat osteosarcoma cells", "assay": "Binding of 125I-labeled proteinases to UMR 106-01 cells", "settings": "125I-labeled ligand 8 nM; means ± SEM for triplicate wells", "data": [{"molecule": "B1", "values": [{"measurement": "Specific binding", "result": "0.0 ± 0.0", "unit": "fmol/2.6 × 10^5 cells"}]}]}
